The text below walks through data of article PMC10362042 (Nature Communications, 2023).

Values joined by “and” are separate entries in the source; they are usually repeats but may differ in a detail not shown here. Equal values may be shown once.

Assay in all cases: SPR
Conditions in all cases: both partners purified

Assay [1] has as its target T1, SARS-CoV-2 Omicron BA.1 RBD (residues 319-541) (SARS-CoV-2, UniProt P0DTC2 319-541).
In assay [2] the target is T2, SARS-CoV-2 Omicron BA.2 RBD (residues 319-541) (SARS-CoV-2, UniProt P0DTC2 319-541).
The target in assay [3] is T3, SARS-CoV-2 Omicron BA.4/5 RBD (residues 319-541) (SARS-CoV-2, UniProt P0DTC2 319-541).
Assay [4] concerns the target SARS-CoV-2 Omicron BA.1 RBD (residues 319-541) (SARS-CoV-2, UniProt P0DTC2 319-541). The source holds these as a separate data set.
Assay [5] addresses SARS-CoV-2 Omicron BA.2 RBD (residues 319-541) (SARS-CoV-2, UniProt P0DTC2 319-541). This is another data set of the same source.
Assay [6] concerns the target SARS-CoV-2 Omicron BA.4/5 RBD (residues 319-541) (SARS-CoV-2, UniProt P0DTC2 319-541). The source holds these as a separate data set.
In assay [7] the target is T1, SARS-CoV-2 Omicron BA.1 RBD (residues …). This is another data set of the same source.
Assay [8] has as its target T2, SARS-CoV-2 Omicron BA.2 RBD (residues …). This is another data set of the same source.
Assay [9] concerns the target T3, SARS-CoV-2 Omicron BA.4/5 RBD (residues …). The source holds these as a separate data set.

B1: Horse ACE2 (receptor)
chain: QSTTEDLAKTFLEKFNSEAEELSHQSSLASWSYNTNITDENVQKMNEAGARWSAFYEEQCKLAKTYPLEEIQNLTVKRQLQALQQSGSSVLSADKSKRLNEILNTMSTIYSTGKVCNPSNPQECLLLEPGLDAIMENSKDYNQRLWAWEGWRSEVGKQLRPLYEEYVVLKNEMARANNYEDYGDYWRGDYEAEGPSGYDYSRDQLIEDVERTFAEIKPLYEHLHAYVRAKLMDTYPSHINPTGCLPAHLLGDMWGRFWTNLYSLTVPFGQKPNIDVTDAMVDQSWDAKRIFEEAEKFFVSVGLPNMTQGFWENSMLTEPGDGRKVVCHPTAWDLGKGDFRIKMCTKVTMDDFLTAHHEMGHIQYDMAYAVQPYLLRNGANEGFHEAVGEIMSLSAATPNHLKAIGLLPPDFYEDSETEINFLLKQALTIVGTLPFTYMLEKWRWMVFKGEIPKEEWMKKWWEMKREIVGVVEPVPHDETYCDPAALFHVANDYSFIRYYTRTIYQFQFQEALCQTAKHEGPLHKCDISNSTEAGQKLLQMLSLGKSEPWTLALERIVGVKNMDVRPLLNYFEPLFTWLKDQNKNSFVGWSTNWSPYAD
In the case of B1, the Kd (in general, a measure of binding affinity in units of concentration) was 7440 nM and 7790 nM and 8720 nM and 7980 nM in [1]; 38200 nM and 38800 nM and 44600 nM and 40500 nM in assay [2]; 455 nM and 445 nM and 459 nM and 453 nM in assay [3]. In addition, the off-rate constant (koff) – broadly, a measure of how fast the partners let go of each other – was 0.23 s⁻¹ and 0.25 s⁻¹ and 0.26 s⁻¹ in [1]; 0.38 s⁻¹ and 0.37 s⁻¹ in [2]; 0.02 s⁻¹ and 0.021 s⁻¹ in assay [3]. The kon (as a rule, a measure of how fast the partners come together) in assay [1] is 30000 M⁻¹ s⁻¹ and 32000 M⁻¹ s⁻¹; in assay [2] it was 9800 M⁻¹ s⁻¹ and 9600 M⁻¹ s⁻¹ and 8400 M⁻¹ s⁻¹; in [3], 45000 M⁻¹ s⁻¹ and 46000 M⁻¹ s⁻¹.

B2: Cat ACE2 (receptor)
chain: QSTTEELAKTFLEKFNHEAEELSYQSSLASWNYNTNITDENVQKMNEAGAKWSAFYEEQSKLAKTYPLAEIHNTTVKRQLQALQQSGSSVLSADKSQRLNTILNAMSTIYSTGKACNPNNPQECLLLEPGLDDIMENSKDYNERLWAWEGWRAEVGKQLRPLYEEYVALKNEMARANNYEDYGDYWRGDYEEEWTDGYNYSRSQLIKDVEHTFTQIKPLYQHLHAYVRAKLMDTYPSRISPTGCLPAHLLGDMWGRFWTNLYPLTVPFGQKPNIDVTDAMVNQSWDARRIFKEAEKFFVSVGLPNMTQGFWENSMLTEPGDSRKVVCHPTAWDLGKGDFRIKMCTKVTMDDFLTAHHEMGHIQYDMAYAVQPFLLRNGANEGFHEAVGEIMSLSAATPNHLKTIGLLSPGFSEDSETEINFLLKQALTIVGTLPFTYMLEKWRWMVFKGEIPKEQWMQKWWEMKREIVGVVEPVPHDETYCDPASLFHVANDYSFIRYYTRTIYQFQFQEALCRIAKHEGPLHKCDISNSSEAGKKLLQMLTLGKSKPWTLALEHVVGEKKMNVTPLLKYFEPLFTWLKEQNRNSFVGWNTDWRPYADQSIKVRISLKSALGDEAYEWNDNEMYLFRSSVAYAMREYFSKVKNQTIPFVEDNVWVSNLKPRISFNFFVTASKNVSDVIPRSEVEEAIRMSRSRINDAFRLDDNSLEFLGIQPTLSPPYQPPVT
B2: in assay [4], the Kd is 60.8 nM and 78.5 nM and 65.2 nM and 68.2 nM; the kon is 2.8e+06 M⁻¹ s⁻¹ and 4.2e+06 M⁻¹ s⁻¹ and 2e+06 M⁻¹ s⁻¹. Also, in assay [5], the Kd is 133 nM and 128 nM and 158 nM and 140 nM; the koff is 0.014 s⁻¹ and 0.036 s⁻¹ and 0.029 s⁻¹; the kon is 180000 M⁻¹ s⁻¹ and 200000 M⁻¹ s⁻¹ and 100000 M⁻¹ s⁻¹. In assay [6], the Kd was 149 nM (2×) and 166 nM and 155 nM; the koff was 0.069 s⁻¹ and 0.071 s⁻¹ and 0.079 s⁻¹; the kon was 470000 M⁻¹ s⁻¹ and 570000 M⁻¹ s⁻¹ and 380000 M⁻¹ s⁻¹.

B3: Golden Hamster ACE2 (residues 1-615) (receptor)
chain: QSIIEEQAKTFLDKFNQEAEDLSYQSALASWNYNTNITEENAQKMNEAAAKWSAFYEEQSKLAKNYSLQEVQNLTIKRQLQALQQSGSSALSADKNKQLNTILNTMSTIYSTGKVCNPKNPQECLLLEPGLDDIMATSTDYNERLWAWEGWRAEVGKQLRPLYEEYVVLKNEMARANNYEDYGDYWRGDYEAEGADGYNYNGNQLIEDVERTFKEIKPLYEQLHAYVRTKLMNTYPSYISPTGCLPAHLLGDMWGRFWTNLYPLTVPFGQKPNIDVTDAMVNQGWNAERIFKEAEKFFVSVGLPYMTQGFWENSMLTDPGDDRKVVCHPTAWDLGKGDFRIKMCTKVTMDNFLTAHHEMGHIQYDMAYATQPFLLRNGANEGFHEAVGEIMSLSAATPEHLKSIGLLPSDFQEDNETEINFLLKQALTIVGTLPFTYMLEKWRWMVFKGDIPKEQWMEKWWEMKREIVGVVEPLPHDETYCDPAALFHVSNDYSFIRYYTRTIYQFQFQEALCQAAKHDGPLHKCDISNSTEAGQKLLNMLRLGKSEPWTLALENVVGARNMDVRPLLNYFEPLSVWLKEQNKNSFVGWNTDWSPYAD
With B3, the Kd in [7] is 277 nM and 230 nM and 296 nM and 268 nM. In assay [8], the Kd is 174 nM and 106 nM and 167 nM and 149 nM; the koff is 0.86 s⁻¹ and 1 s⁻¹ and 0.75 s⁻¹; the kon is 2.5e+06 M⁻¹ s⁻¹ and 3e+06 M⁻¹ s⁻¹ and 2e+06 M⁻¹ s⁻¹. Moreover, in assay [9], the Kd was 118 nM and 117 nM and 166 nM and 133 nM; the on-rate (kon) is 26000 M⁻¹ s⁻¹ and 13000 M⁻¹ s⁻¹ and 16000 M⁻¹ s⁻¹.
